In experiment [1] the target is soluble recombinant mouse BAFF (mouse) (UniProt Q9WU72).
The target is the same in experiment [2]. The source holds these as a separate data set.

UniProt Q9WU72, sequence (Q9WU72 127-309): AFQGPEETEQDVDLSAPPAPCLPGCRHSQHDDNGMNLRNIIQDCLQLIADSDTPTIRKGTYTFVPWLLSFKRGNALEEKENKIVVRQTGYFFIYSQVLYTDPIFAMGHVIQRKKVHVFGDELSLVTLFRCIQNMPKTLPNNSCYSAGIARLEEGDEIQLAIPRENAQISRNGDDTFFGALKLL

B1: recombinant BAFF-R (receptor)
chain: MGARRLRVRSQRSRDSSVPTQCNQTECFDPLVRNCVSCELFHTPDTGHTSSLEPGTALQPQEGSALRPDVALLVGAPALLGLILALTLVGLVSLVSWRWRQQLRTASPDTSEGVQQESLENVFVPSSETPHASAPTWPPLKEDADSALPRHSVPVPATELGSTELVTTKTAGPEQ
Consider B1, for which, in experiment [1], the percent of NgR1+ or NgR3+ B-cells isolated from spinal cord of EAE ngr1+/+ mice in S phase (BrdU/7AAD flow cytometry) after 50 ng/mL rBAFF pre-incubated with excess rBAFF-R came out at 27.7%.

B2: NgR1-Fc (Fc fusion)
chain: CPGACVCYNEPKVTTSCPQQGLQAVPTGIPASSQRIFLHGNRISHVPAASFQSCRNLTILWLHSNALARIDAAAFTGLTLLEQLDLSDNAQLHVVDPTTFHGLGHLHTLHLDRCGLRELGPGLFRGLAALQYLYLQDNNLQALPDNTFRDLGNLTHLFLHGNRIPSVPEHAFRGLHSLDRLLLHQNHVARVHPHAFRDLGRLMTLYLFANNLSMLPAEVLMPLRSLQYLRLNDNPWVCDCRARPLWAWLQKFRGSSSEVPCNLPQRLADRDLKRLAASDLEGCAVASGPFRPIQTSQLTDEELLSLPKCCQPDAADKASVLEPGRPASAGNALKGRVPPGDTPPGNGSGPRHINDSPFGTLPSSAEPPLTALRPGGSEPPGLPTTGPRRRPGCSRKNRTRSHCRLGQAGSGASGTGDAEGS
Regarding B2, in experiment [2], the percent of B-cells isolated from spleen entering the S phase after rBAFF pre-incubated with excess NgR-Fc is 8% and the percent of B-cells isolated from spleen halted in the G0/G1 phase after rBAFF pre-incubated with excess NgR-Fc is 85.5%. Also, in experiment [1], the percent of NgR1+ or NgR3+ B-cells isolated from spinal cord of EAE ngr1+/+ mice in S phase (BrdU/7AAD flow cytometry) after 50 ng/mL rBAFF pre-incubated with excess NgR-Fc worked out at 20.6% and the percent of isolated spinal cord B-cells staying in the G0/G1 phase after rBAFF pre-incubated with excess NgR-Fc is 55.8%.
